Consider 4 molecules from US20110110962A1 (INSERM INSTITUT NATIONAL DE LA SANT ET DE LA RECHERCHE M …, published 2011).

The target in one test is TLR5 of mice (mouse) (UniProt Q9JLF7). Kind of test: cell-based or functional assay.
The next test concerns the target TLR5 of mice (mouse, UniProt Q9JLF7 27-859). Description: cell-based or functional assay.

Chain of TLR5 of mice (Q9JLF7 27-859): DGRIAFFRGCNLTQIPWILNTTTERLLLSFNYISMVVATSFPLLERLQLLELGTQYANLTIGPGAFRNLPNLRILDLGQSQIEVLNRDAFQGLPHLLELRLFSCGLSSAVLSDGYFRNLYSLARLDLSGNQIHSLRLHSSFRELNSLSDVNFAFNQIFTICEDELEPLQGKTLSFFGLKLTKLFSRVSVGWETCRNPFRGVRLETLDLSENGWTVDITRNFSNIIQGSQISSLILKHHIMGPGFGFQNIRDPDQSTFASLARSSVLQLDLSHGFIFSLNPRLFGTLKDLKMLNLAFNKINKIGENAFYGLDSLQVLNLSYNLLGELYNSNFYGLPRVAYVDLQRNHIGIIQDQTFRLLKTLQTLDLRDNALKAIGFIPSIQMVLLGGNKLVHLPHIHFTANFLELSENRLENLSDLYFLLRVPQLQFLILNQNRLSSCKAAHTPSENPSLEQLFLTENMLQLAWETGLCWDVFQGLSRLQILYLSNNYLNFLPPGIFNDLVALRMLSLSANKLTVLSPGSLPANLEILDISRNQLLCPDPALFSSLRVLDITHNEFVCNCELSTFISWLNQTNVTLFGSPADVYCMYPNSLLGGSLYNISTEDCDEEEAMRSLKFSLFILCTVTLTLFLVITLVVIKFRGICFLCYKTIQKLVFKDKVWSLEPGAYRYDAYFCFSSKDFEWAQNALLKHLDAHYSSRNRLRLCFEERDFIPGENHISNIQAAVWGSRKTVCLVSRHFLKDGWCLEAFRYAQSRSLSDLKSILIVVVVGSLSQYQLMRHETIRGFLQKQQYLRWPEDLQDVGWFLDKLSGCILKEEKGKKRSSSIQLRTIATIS
Chain of TLR5 of mice (mouse) (Q9JLF7 27-859): as above

On to “FliCΔ174-400 flagellin (from UniProt P06175 2-493) (ligand)”, for which, in the test with TLR5 of mice (mouse), the CCL20 mRNA pulmonary levels 2 h after i.n. instillation, against mock-treated animals stood at 30 fold; the serum CCL20 after 10 µg i.v. worked out at 0.85 ng/mL; the systemic pro-inflammatory effects (serum CCL20 and CXCL2 after i.v. injection), against wild type FliC turned out to be 100 fold.

B1: Salmonella enterica Serovar Typhimurium ATCC14028 flagellin FliC (ligand)
chain: AQVINTNSLSLLTQNNLNKSQSALGTAIERLSSGLRINSAKDDAAGQAIANRFTANIKGLTQASRNANDGISIAQTTEGALNEINNNLQRVRELAVQSANSTNSQSDLDSIQAEITQRLNEIDRVSGQTQFNGVKVLAQDNTLTIQVGANDGETIDIDLKQINSQTLGLDTLNVQQKYKVSDTAATVTGYADTTIALDNSTFKASATGLGGTDQKIDGDLKFDDTTGKYYAKVTVTGGTGKDGYYEVSVDKTNGEVTLAGGATSPLTGGLPATATEDVKNVQVANADLTEAKAALTAAGVTGTASVVKMSYTDNNGKTIDGGLAVKVGDDYYSATQNKDGSISINTTKYTADDGTSKTALNKLGGADGKTEVVSIGGKTYAASKAEGHNFKAQPDLAEAAATTTENPLQKIDAALAQVDTLRSDLGAVQNRFNSAITNLGNTVNNLTSARSRIEDSDYATEVSNMSRAQILQQAGTSVLAQANQVPQNVLSLLR
Regarding B1, the “CCL20 mRNA pulmonary levels 2 h after i.n. instillation, against mock-treated animals” value (from here on “CCL20 mRNA pulmonary levels 2 h”) with TLR5 of mice was approximately 30 fold.

B2: FliCΔ191-352 (ligand)
chain: AQVINTNSLSLLTQNNLNKSQSALGTAIERLSSGLRINSAKDDAAGQAIANRFTANIKGLTQASRNANDGISIAQTTEGALNEINNNLQRVRELAVQSANSTNSQSDLDSIQAEITQRLNEIDRVSGQTQFNGVKVLAQDNTLTIQVGANDGETIDIDLKQINSQTLGLDTLNVQQKYKVSDTAATVTGYLELEDGTSKTALNKLGGADGKTEVVSIGGKTYAASKAEGHNFKAQPDLAEAAATTTENPLQKIDAALAQVDTLRSDLGAVQNRFNSAITNLGNTVNNLTSARSRIEDSDYATEVSNMSRAQILQQAGTSVLAQANQVPQSVLSLLR
Consider B2, for which the “CCL20 mRNA pulmonary levels 2 h” value with TLR5 of mice is approximately 30 fold.

B3: FliCΔ204-292 (ligand)
chain: AQVINTNSLSLLTQNNLNKSQSALGTAIERLSSGLRINSAKDDAAGQAIANRFTANIKGLTQASRNANDGISIAQTTEGALNEINNNLQRVRELAVQSANSTNSQSDLDSIQAEITQRLNEIDRVSGQTQFNGVKVLAQDNTLTIQVGANDGETIDIDLKQINSQTLGLDTLNVQQKYKVSDTAATVTGYADTTIALDNSTFKAALTAAGVTGTASVVKMSYTDNNGKTIDGGLAVKVGDDYYSATQNKDGSISINTTKYTADDGTSKTALNKLGGADGKTEVVSIGGKTYAASKAEGHNFKAQPDLAEAAATTTENPLQKIDAALAQVDTLRSDLGAVQNRFNSAITNLGNTVNNLTSARSRIEDSDYATEVSNMSRAQILQQAGTSVLAQANQVPQNVLSLLR
As to B3, the “CCL20 mRNA pulmonary levels 2 h” value with TLR5 of mice is approximately 30 fold.
